Experimental findings from patent publication US20140161725A1 (H LEE MOFFITT CANCER CENTER AND RESEARCH INSTITUTE, published 2014) are described below.

Where no end group is shown, it is not given here. The star is where a group is joined. Dhc(Pam)2 = S-[2,3-bis(palmitoyl)oxy-(R)-propyl]-cysteine, CCCCCCCCCCCCCCCC(=O)OC[C@H](CSC[C@H](N)C(=O)*)OC(=O)CCCCCCCCCCCCCCC; PEGO = not defined here

The target of test [1] is T1, human Toll-like receptor 2 (TLR2) (human, UniProt O60603 21-784). Kind of test: Eu TRF saturation binding on HEK-293/hTLR2 cells; non-specific binding with 1 µM Pam2CSK4.
In test [2] the target is T1, human Toll-like receptor 2 (TLR2). The experiment in a line: Eu TRF saturation binding on TLR2 expressing cells.
Test [3] shares this target. Kind of test: Eu TRF saturation binding on Capan-I cells.
For test [4] the target is unchanged. Kind of test: Eu TRF saturation binding on SU.86.86 cells; non-specific binding with 1 µM Pam2CSK4.
Test [5] shares this target. Kind of test: time-resolved fluorescence saturation binding assay.
The target is the same in test [6]. Kind of test: Eu TRF saturation binding on HEK-293/hTLR2 cells.
Test [7] has the same target. Kind of test: Eu TRF saturation binding on Capan-I cells; non-specific binding with 1 µM Pam2CSK4.
The target is the same in test [8]. The experiment in a line: Eu TRF saturation binding on SU.86.86 cells.
Test [9] has as its target human carbonic anhydrase 9 (CAIX) (human) (UniProt Q16790). Kind of test: in vivo fluorescence imaging of CAIX positive MDA-mb-231 tumour 24 h after injection; competitor unlabeled CAIX mAb.
Test [10] deals with T1, human Toll-like receptor 2 (TLR2). Kind of test: Eu TRF competition binding on HEK-293/hTLR2 cells; competitor 90 nM compound 11.
Test [11] has the same target. The experiment in a line: in vivo fluorescence imaging of TLR2 expressing SU.86.86 xenografts 24 h post-injection; competitor 20-fold excess Pam2CSK4.
The target is the same in test [12]. Kind of test: Eu TRF competition binding on SU.86.86 cells; competitor 90 nM compound 11.
Test [13] shares this target. The experiment in a line: Eu TRF competition binding; competitor compound 11.
For test [14] the target is unchanged. The experiment in a line: time-resolved fluorescence competitive binding assay.
The target is the same in test [15]. Kind of test: cell-based or functional assay.
Test [16] shares this target. Kind of test: in cyto competition binding assay.

T1 sequence (O60603 21-784): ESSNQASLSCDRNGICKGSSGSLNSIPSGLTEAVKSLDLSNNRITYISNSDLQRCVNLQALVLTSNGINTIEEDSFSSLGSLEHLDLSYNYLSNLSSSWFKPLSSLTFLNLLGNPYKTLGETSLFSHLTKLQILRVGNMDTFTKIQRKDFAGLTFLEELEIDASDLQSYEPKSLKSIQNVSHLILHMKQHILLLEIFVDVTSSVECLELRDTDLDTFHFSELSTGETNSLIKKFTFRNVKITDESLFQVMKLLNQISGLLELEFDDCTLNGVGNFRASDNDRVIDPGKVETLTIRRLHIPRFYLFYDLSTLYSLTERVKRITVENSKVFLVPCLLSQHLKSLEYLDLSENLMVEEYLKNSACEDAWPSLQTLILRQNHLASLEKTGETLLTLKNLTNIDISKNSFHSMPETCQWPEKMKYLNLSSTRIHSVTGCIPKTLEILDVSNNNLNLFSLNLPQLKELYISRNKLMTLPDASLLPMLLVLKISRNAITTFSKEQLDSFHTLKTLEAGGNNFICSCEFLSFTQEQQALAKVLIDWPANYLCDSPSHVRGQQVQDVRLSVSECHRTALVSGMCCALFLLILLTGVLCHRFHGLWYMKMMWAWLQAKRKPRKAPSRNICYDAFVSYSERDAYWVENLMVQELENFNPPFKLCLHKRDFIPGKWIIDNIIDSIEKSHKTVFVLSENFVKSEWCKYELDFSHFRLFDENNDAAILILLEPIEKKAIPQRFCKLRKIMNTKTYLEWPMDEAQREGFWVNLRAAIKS

One may read the Kd as the concentration at which binding is half-saturated. Read a high Kd as weaker binding. For “Compound 11: Eu-DTPA-PEGO-Cys(S-[2,3-bis(palmitoyl)oxy-(R)-propyl])-Gly-DSer-PEGO-NH2 (peptide)”, the equilibrium dissociation constant (Kd) is 34 nM in test [1]; under 100 nM in test [2]; 74 nM in test [4]; 30 nM in [5]; 78 nM in test [7]. In addition, the Bmax in [3] was determined as 951000 AFU; in [6] it was 114000 AFU; in [8] it was 270000 AFU.
With “CA9Ab-680 (anti-human CAIX monoclonal antibody, Clone 303123, R&D systems, conjugated to VivoTag-S 680)”, the fold decrease of probe fluorescence in the tumour after blocking with unlabeled CAIX mAb in [9] was 1.7 times.
What is called Ki is the equilibrium dissociation constant of an inhibitor or competing ligand from its target. A high value points to weaker binding. For the molecule “Compound 13: IRDye800CW-Mpr-PEGO-Cys(S-[2,3-bis(palmitoyl)oxy-(R)-propyl])-Gly-DSer-PEGO-NH2 (peptide)”, the Ki in [10] was 11 nM; in [12], 67 nM; in [13] it was under 100 nM; in test [14], 10 nM. For the same molecule, the unblocked/blocked tumor fluorescence (fold) in test [11] was 1.94 fold.
Take “Compound 10: Ac-PEGO-Cys(S-[2,3-bis(palmitoyl)oxy-(R)-propyl])-Gly-DSer-PEGO-NH2 (peptide)”: the Ki was 25 nM in [10], 91 nM in [12], under 100 nM in test [13] and 24 nM in test [16]. Also, in test [15], the fold of enhancement of luminescence at 1 µg/mL vs SAA at 10 µg/mL came out at 5.2 fold. For the same molecule, the fold of enhancement of luminescence vs SAA at 1 µg/mL in [15] stood at 14 fold.
In the case of “Compound 12: Mpr-PEGO-Cys(S-[2,3-bis(palmitoyl)oxy-(R)-propyl])-Gly-DSer-PEGO-NH2 (peptide)”, the Ki in [12] was 25 nM; in test [13] it was under 100 nM.
With {Ac-PEGO-Dhc(Pam)2}-GSQNLASLEE-NH2 (reading uncertain), in test [15], the “fold of enhancement of luminescence at 1 µg/mL vs SAA at 10 µg/mL” value worked out at 4.8 fold and the “fold of enhancement of luminescence vs SAA at 1 µg/mL” value is 13 fold.
SRFDEDDLE-NH2 (not fully specified (some residues, N-terminus)): in [15], the “fold of enhancement of luminescence at 1 µg/mL vs SAA at 10 µg/mL” value turned out to be 4.2 fold and the “fold of enhancement of luminescence vs SAA at 1 µg/mL” value was 11 fold.
